The results in this text go back to patent US20160287696A1, “PAN POLLEN IMMUNOGENS AND METHODS AND USES FOR IMMUNE RESPONSE MODULATION” (LA JOLLA INSTITUTE FOR ALLERGY AND IMMUNOLOGY, priority 2013, published 2016).

In this assay the test system is cultured PBMCs of the allergic donors. Briefly: ELISPOT of IL-5 or IFNg production by cultured PBMCs of TG allergic donors in response to peptide. The format is cell-based, human. Conditions: for NTGA's containing at least one T cell epitope, Th+ (Col 2): NTGA number given = criterion met, TG allergic donors n=20; for No of PG+ & th+ peptides per NTGA / No of PP & Th+ peptides per NTGA: Table 6; for No of PG+ & th+ peptides per NTGA: PG+ peptides recognized by T cells of grass allergic donors (n=20); for No of PP & Th+ peptides per NTGA: PP peptides recognized by T cells of grass allergic donors (n=20); for # Th+: Table 7, peptides per NTGA recognized by T cells of grass allergic donors (n=20). An excerpt:
Table 1 indicates for each of the 397 PG+ peptides in which non-grass pollen species a matching peptide with either less than 3, less than 2 or zero mismatches are found. The number of TG grass allergic donors (n=20) with an in vitro T cell response to the TG peptide sequence is also shown.
A set of 93 proteins from Timothy grass (TG) pollen and the assembly of 822 peptides (15 mers) predicted to promiscuously bind HLA class II molecules shown in Table 9 and the immune reactivity in allergic donors have been reported in PCT application WO 2013/119863. […] Immune reactivity was determined by the production of IL-5 or IFNg from cultured PBMCs of the allergic donors in response to stimulation with a peptide and IL-5 and IFNg were measured by ELISPOT as described in Oseroff C et al, 2010.
In short, T cell immune reactivity was determined using PBMCs isolated from study participants and stored in liquid nitrogen until further use. For experimental testing, PBMCs were thawed and expanded in vitro with TG pollen extract (50 μg/mL) or the peptide pool ([…]). The TG extract and peptide pools had each been previously titrated to determine optimal stimulation concentrations.
Cytokine production by cultured PBMCs in response to antigen stimulation was measured by ELISPOT. Cells (1×10^5 cells/well) were plated and incubated with peptide (10 μg/mL), the peptide pool (5 μg/mL), or the TG extract (50 μg/mL). Phytohaemagglutinin (10 μg/mL) and medium alone were used as positive and negative controls, respectively. Samples were considered to produce a cytokine if 100 spot-forming cells (SFCs)/10^6 PBMCs were detected, with P .05 and a stimulation index of 2 or more. Criteria for individual peptides were the same except that a minimum of 20 SFCs were required for a sample to be counted as positive.
Table 3 lists the 397 PG+ peptides and indicates for each non-grass pollen species whether a matching peptide with either less than 3, less than 2 or zero mismatches could be detected. The immune reactivity of the TG peptide was assessed as the number of TG grass allergic donors (n=20) having in vitro T cell response against the TG peptide.

B1: NTGA 51: Phl p wild type sequence, Table 2 (protein)
chain: MSPAEPTREESVYMAKLAEQAERYEEMVEFMERVAKATGGAGPGEELSVEERNLLSVAYKNVIGARRASWRIISSIEQKEEGRGNDAHATTIRSYRSKIEAELAKICDGILALLDSHLVPSAGAAESKVFYLKMKGDYHRYLAEFKSGAERKEAAESTMNSYKAAQDIALADLAPTHPIRLGLALNFSVFYYEILNSPDRACNLAKQAFDEAISELDSLGEESYKDSTLIMQLLRDNLTLWTSDTNEDGGDEIKEAPAPKESGD
modifications: Phleum Pratense
On to B1, for which the “NTGA's containing at least one T cell epitope, Th+ (Col 2)” value (“NTGA's containing” for short) came out at 51; the “No of PG+ & th+ peptides per NTGA” value is 2; the “No of PP & Th+ peptides per NTGA” value is reported as 1; the “# Th+” value turned out to be 0.

B2: NTGA 34: Phl p wild type sequence, Table 2 (protein)
chain: MSFSWICACVRAAAVAWEAGKPLSIEEVEVAPPQAMEVRVKILFTALCHTDVYFWEAKGQTPVFPRIFGHEAGGIVESVGEGVTDVAPGDHVLPVFTGECKECRHCKSAESNMCDLLRINTDRGVMISDGKSRFSIDGKPIFHFVGTSTFSEYTVMHVGCVAKINPEAPLDKVCVLSCGISTGLGASINVAKPPKGSTVAIFGLGAVGLAAAEGARIAGASRIIGIDLNANRFEEARKFGCTEFVNPKDHTKPVQEVLAEMTDGGVDRSVECTGNINAMIQAFECVHDGWGVAVLVGVPHKDAEFKTHPMNFLNERTLKGTFFGNFKPRTDLPNVVEMYMKKELEVEKFITHSVTFSEINKAFDLMAKGEGIRCIIRMEH
modifications: Phleum Pratense
B2: the “NTGA's containing” value is listed as 34; the “No of PG+ & th+ peptides per NTGA” value is 3; the “No of PP & Th+ peptides per NTGA” value is recorded as 1; the “# Th+” value was found to be 0.

B3: NTGA 76: Phl p wild type sequence, Table 2 (protein)
chain: MASHIVGYPRMGPKRELKFALESFWDGKSSAEDLEKVATDLRASIWKQMSEAGIKYIPSNTFSYYDQVLDTTAMLGAVPDRYSWTGGEIGHSTYFSMARGNATVPAMEMTKWFDTNYHFIVPELGPETKFSYASHKAVSEYKEAKALGVDTVPVLVGPVSYLLLSKAAKGVEKSFSLLSLLGGILPIYKEVVAELKAAGASWIQFDEPTLVKDLAAHELAAFSSAYAELESSLSGLNVLIETYFADVPAESYKTLTSLSGVTAYGFDLVRGTKTLDLLKSVGIPSGKYLFAGVVDGRNIWADDLAASLSTLESLEAIVGKDKLVVSTSCSLMHTAVDLVNETKLDSEIKSWLAFAAQKVVEVNALGKALVGLKDEAYFAANAAAQASRRSSPRVNNEEVQKAAAALKGSDHRRATTVSARLDAQQKKLNLPVLPTTTIGSFPQTMDLRRVRREYKAKKISEEAYVSAIKEEISKVVKIQEELDIDVLVHGEPERNDMVEYFGEQLSGFAFTANGWVQSYGSRCVKPPIIYGDVSRPNPMTVFWSKMAQSMTPRPMKGMLTGPV
modifications: Phleum Pratense
Regarding B3, the “NTGA's containing” value worked out at 76; the “No of PG+ & th+ peptides per NTGA” value was 5; the “No of PP & Th+ peptides per NTGA” value is recorded as 0; the “# Th+” value was 0.

B4: NTGA 86: Phl p wild type sequence, Table 2 (protein)
chain: MSTAEATREENVYMAKLAEQAERYEEMVEFMEKVAKTADVGELTVEERNLLSVAYKNVIGARRASWRIISSIEQKEESRGNEAYVASIKEYRTRIETELSKICDGILKLLDSHLVPSATAAESKVFYLKMKGDYHRYLAEFKAGAERKEAAENTLVAYKSAQDIALADLPTTHPIRLGLALNFSVFYYEILNSPDRACNLAKQAFDEAIAELDSLGEESYKDSTLIMQLLRDNLTLWTSDNADEGGDEIKEASKPEGEGH
modifications: Phleum Pratense
As for B4, the “NTGA's containing” value is on record as 86; the “No of PG+ & th+ peptides per NTGA” value is 1; the “No of PP & Th+ peptides per NTGA” value was found to be 1; the “# Th+” value was determined as 0.

B5: NTGA 77: Phl p wild type sequence, Table 2 (protein)
chain: QEVAGDVRMTDTRADEAERGITIKSTGISLYYEMSEESLASYKGDRDGNDYLINLIDSPGHVDFSSEVTAALRITDGALVVVDCIEGVCVQTETVLRQALGERIRPVLTVNKMDRCFLELQVDGEEAYQTFSRVIENANVIMATYEDALLGDVQVYPEKGTVAFSAGLHGWAFTLTNFAKMYASKFGVDESKMMERLWGENFFDPATKKWTSKNTGSGTCKRGFVQFCYEPIKQIIEICMNDQKDKLWPMLKKLGVTMKNDEKDLMGKALMKRVMQAWLPASRALLEMMVYHLPSPSKAQRYRVENLYEGPLDDVYANAIRNCDPEGPLMLYVSKMIPASDKGRFFAFGRVFAGRVATGMKVRIMGPNFVPGQKKDLYTKSVQRTVIWMGKKQESVEDVPCGNTVALVGLDQFITKNATLTGEKEVDACPIRAMKFSVSPVVRVAVQCKVASDLPKLVEGLKRLAKSDPMVLCSIEESGEHIIAGAGELHLEICLKDLQDDFMGGAEIIVSPPVVSFRETVLDKSCRTVMSKSPNKHNRLYMEARPLEEGLPEAIDEGRIGPRDDPKVRSKILSEEFGWDKDLAKKIWCFGPETTGPNMVVDMCKGVQYLNEIKDSVVAGFQWASKEGALADENMRGICFEVCDVVLHTDAIHRGGGQVIPTARRVIFASQLTAKPRLLEPVYLVEIQAPEGALGGIYGVLNQKRGHVFEEMQRPGTPLYNIKAYLPVIESFGFSATLRAATSGQAFPQCVFDHWDVMNSDPLEVDSQSFNLVKEIRKRKGLKEQMTPLSDFEDKL
modifications: Phleum Pratense
Take B5: the “NTGA's containing” value came out at 77; the “No of PG+ & th+ peptides per NTGA” value is listed as 4; the “No of PP & Th+ peptides per NTGA” value worked out at 2; the “# Th+” value is listed as 0.

B6: NTGA 65: Phl p wild type sequence, Table 2 (protein)
chain: AMAVDLTPRQPTKAYGGDGGAYYEWSPAELPMLGVASIGAAKLSLAAGGMSLPSYSDSAKVAYVLQGKGTCGIVLPEATKEKVVAIKEGDALALPFGVVTWWHNTPESSTELVVLFLGDTSKGHTPGKFTNFQLTGATGIFTGFSTEFVARAWDLDQDAAASLVSTQPGTGIVKLAPGHKMPVARAEDRKGMALNCLEAKLDVDIPNGGRVVVLNTVNLPLVKEVGLGADLVRIDAHSMCSPGFSCDSAYQVTYIVRGSGRVQVVGPDGKRVLETRIEGGSLFIVPRFHVVSKIADASGMEWFSIITTPNPIFSHLAGKTSVWKAISPEVLEAAFNTTPEMEKLFRSKRLDSEIFFAPS
modifications: Phleum Pratense
B6: the “NTGA's containing” value stood at 65; the “No of PG+ & th+ peptides per NTGA” value came to 2; the “No of PP & Th+ peptides per NTGA” value is 0; the “# Th+” value is 0.

B7: NTGA 5/64: Phl p wild type full length sequence from which PG+ peptides of NTGA's 5 and 64 derive (protein)
chain: MAAKCYPTVSDEYLAAVAKARRKLRGLIAEKNCAPLMLRIAWHSAGTFDVATKTGGPFGTMRCPAELAHGANAGLDIAVRLLEPIKEQVPILSYADFYQLAGVVAVEITGGPEVPFHPGRQDKTEPPPEGRLPDATLGSDHLRQVFTAQMGLSDQDIVALSGGHTLGRCHKERSGFEGAWTANPLIFDNSYFTELLTGEKEGLLQLPTDKTLLTDPAFRPLVEKYAADEDAFFADYAEAHLKLSELGFGE
modifications: Phleum Pratense
Consider B7, for which the “NTGA's containing” value is reported as 5/64.

B8: NTGA 62: Phl p wild type sequence, Table 2 (protein)
chain: MRRLSLILLAAAALLAAAVSAEPGPAPKLSPDFYSQTCPRAERIIAEVVQSKQMANPTTAAGVLRVFFHDCFVSGCDASVLIAPTHYAKSEKDADINHSLPGDAFDAVVRSKLALELECPGVVSCADILAIASRVLVTMTGGPRYPVPLGRKDSLSSNPAAPDVELPHSNFTVGRIIELFTAKGFTVQEMVALSGAHTLGFSHCQEFASRIYNYRDKGGKPAPFDPSMNPTYAKGLQAACQDYQKDPTIAAFNDIMTPGKFDNMYYVNIERGLGLLSTDEDMWSDMRTKPFVQRYAANNTDFFEDFAKAIEKLSMYGVKTGADGEIRRRCDAFNSGPNIQ
modifications: Phleum Pratense
Regarding B8, the “NTGA's containing” value stood at 62; the “No of PG+ & th+ peptides per NTGA” value came to 1; the “No of PP & Th+ peptides per NTGA” value is given as 0; the “# Th+” value is 2.

B9: NTGA 56: Phl p wild type sequence, Table 2 (protein)
chain: MARLLFPLPIAAAAVSASSIHLAASRFRLPVVSAARRGTLFGGRVAVRAPARLATRGVSAGAEAGGSAARAGTVIGPEEALEWVKNDRRRLLHVVYRVGDLDKTIKFYTECLGMKLLRKRDIPEERYTNAFLGYGPEDSHFVVELTYNYGVESYDIGSGFGHFGIAVEDVEKTVELIKAKGGTVTREPGPVKGGKSVIAFIEDPDGYKFELIERGPTPEPLCQVMLRVGDLDRAIKFYEKAFGMELLRRKDNPQYKYTIAMMGYGPEDKNAVLELTYNYGVKEYDKGNAYAQIAIGTDDVYKTAEVVRQNGGQITREPGPLPGISTKITACTDPDGWKSVFVDNLDFLKELEE
modifications: Phleum Pratense
With B9, the “NTGA's containing” value is 56; the “No of PG+ & th+ peptides per NTGA” value stood at 1; the “No of PP & Th+ peptides per NTGA” value was determined as 1; the “# Th+” value is 0.
